Test results reported in the nanobody polyreactivity screen of Harvey et al. (2022).

Assay: yeast display, Sf9 membrane polyspecificity reagent, FACS + sequencing; frameworks hold sequencing errors
In short: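 After 36–48 hours of galactose induction, yeast (Saccharomyces cerevisiae BJ5465) displaying a synthetic nanobody library were stained at 4 °C for 1 hour with 10% biotinylated, detergent-solubilized Sf9 membrane reagent. Streptavidin microbeads enriched the stained cells before FACS sorting into low and high (top ~1%) gates on anti-HA and streptavidin fluorescence. Each clone's polyreactivity label reflects its gate of origin.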

| Sequence | polyreactivity (PSR sort gate) |
| --- | --- |
| QVQLVESGGGLVQAGGSLRLSCASSGFIFHHYGMGRSRQAPGKERELVAGDTHYADSVKGRFTISRDNAKNTVYLQMNSLKPEDTAVYYCNAYWKDDFEDGPGRRGMDYWGQGTLVTVSS | low polyreactivity |
| QVQLVESGGGLVQAGGSLRLSCASSGFIFRWYTMGWYRQAPGKERELVAAISWSSGSTSYADSVKGRFTISRDNAKNTVYLQMNSLKPEDTAVYYCAAVWRTASTQYYYWGQGTQVTVSS | high polyreactivity |
| QVQLVESGGGLVQAGGSLRLSCASSGFIFRYYAMGWYRQAPGKERELVAAISWRGDSTSYADSVKGRFTISRDNAKYTVYLQMNSLKPEDTAVYYCAAGRYLAYLYWGRYEYYYWGQGTQVTVSS | low polyreactivity |
| QVQLVESGGGLVQAGGSLRLSCASSGFIFVNYAMEWYRQAPGKERELVAAISRNGGRTYYADSVKGRFTISRDNAKNTVYFQMNSLKPEDTAVYYCTAELSGKRDYWGQGTQVTVSS | high polyreactivity |
| QVQLVESGGGLVQAGGSLRLSCASSGFILDYNAMGWYRQAPGKERQLVATITGRGDRTYYADSVKGRFTISRDNAKNTVYLQMNSLKPEDTAVYYCAAGFDGSSHPGFDSWGQGTQVTVSS | low polyreactivity |
| QVQLVESGGGLVQAGGSLRLSCASSGFTFDPYAMGWYRQAPGKERELVAAISWSGGSTYYADSVKGRFTISRDNAKNTVYLQMNSLKPEDTAVYYCAAEWYNSAYYEYDYWGQGTQVTVSS | high polyreactivity |
| QVQLVESGGGLVQAGGSLRLSCASSGFTFSDYAMAWYRQAPGKERELVADISTSGGSTYYADSVKGRFTISRDNAKNTVYLQMNSLKPEDTAVYYCAVRPGYYWGYWPRFGYWGQGTQVTVSS | low polyreactivity |
| QVQLVESGGGLVQAGGSLRLSCASSGFTFWYTMGWYRQAPGKEREFVAAITSGGGRTYYADSVKGRFTISRDNAKNTVYLQMNSLKPEETAVYYSAADSYYSWYDYWVQGTQVTVSS | high polyreactivity |
| QVQLVESGGGLVQAGGSLRLSCASSGHIFIGNAMGWYRQAPGKERELVAAISRGGGRTYYADSVKGRFTISRDNAKNTVFLQMNILKPEDTAVYYCATVGQGPTKTPAGRYDYWGQGTQVTVSS | high polyreactivity |
| QVQLVESGGGLVQAGGSLRLSCASSGIIFGGNAMGWYRQAPGKERELVATISNGGSTKYADSVKGRFTISRDNAKNTVYLQMNSLKPEDTAVYYCAAQPRVGSYVRSSRGRYNHWGQGTQVTVSS | high polyreactivity |
| QVQLVESGGGLVQAGGSLRLSCASSGITFGYYAMGWYRQAPGKESELGAARSGSGGSTYYADSVKGRFTISRDNAKNTVSLQMNSLKPEDTAVYDCAAEGPSNTLYWFSWEDYWGQGTQVTVSS | high polyreactivity |
| QVQLVESGGGLVQAGGSLRLSCASSGITFNLNDMGWYRQAPGKERELVAAITSGGNTSYADSVKGRFTISRDNAKNTVYLQMNSLKPEDTAVYYCATEDFRTDTGMYYWGQGTQVTVSS | low polyreactivity |
| QVQLVESGGGLVQAGGSLRLSCASSGITFVVNAMVWYRQAPGKEREFVAAIDVRGGTTYYADSVKGRFTISRDNAKNSVYLQMNSLKPEDTAVYYCAASSTSGYDWGQGTQVTVSS | low polyreactivity |
| QVQLVESGGGLVQAGGSLRLSCASSGLIFPFYDMGWYRQAPGKERELVAAMTRSGDSTYYADSVKGRFTISRDNAKNTVYLQMNSLKPEDTAVSYCAAQPGTASYAGDGDSWGQGTQVTVSS | low polyreactivity |
| QVQLVESGGGLVQAGGSLRLSCASSGLIYHRNAMGWYRQAPGKERELVAAITKTGGGTYYADSVKGRFTISRDNAKNTVYLQMNSLKPEDTAVYYCAADTQRTFYYWGQGTQVTVSS | low polyreactivity |
| QVQLVESGGGLVQAGGSLRLSCASSGNIFVAYAMGWYRQAPGKERELVAAITSGGRTYADSVKGRFTISRDNAKNTVYLQMNSLKPEDTAVYYCNADPYYVYLGYYDRYYSGYGYWGQGTQVTVSS | low polyreactivity |

| Sequence | polyreactivity (PSR sort gate) |
| --- | --- |
| QVQLVESGGGLVQAGGSLRLSCASSGNTFKTNAMGWYRQAPGKERELVAAISSSGSTYYADSVKGRFTISRDNAKNTVYLQMNSLKPEDTAVYYCAVTYRRFYYWGQGTQVTVSS | high polyreactivity |
| QVQLVESGGGLVQAGGSLRLSCASSGRIFFMYAMGWYIQAPGKERELVAAINKSGGSTYADSVKGRFTISRDNANNTVYLQMNSLKPEDTAVYYCATENTDSGESVYIVKYGSDYWGQGTQVTVSS | low polyreactivity |
| QVQLVESGGGLVQAGGSLRLSCASSGRIFGSYAMGWYRQAPGKERELVAGIRSVGSTNYADSVKGRFTISRDNAKNTVFLQINSLKPEDTAVYYCAARLWHLSYAGQGGDYWGQVTQVTVSS | low polyreactivity |
| QVQLVESGGGLVQAGGSLRLSCASSGRIFYSYAMGWYRQAPGKERELVAAITVSGGSTFYADSVKGRFTISRDNAKNTVYLQMNSLKPEDTAVYYCAAQSTTIEDGWYVEYNYWGQGTQVTVSS | high polyreactivity |
| QVQLVESGGGLVQAGGSLRLSCASSGRIIINYDMGWYRQAPGKEIELVAAITWSTGSTYADSVKGRFTISRDNAKNTVYLQMNSLKPEDTAVYYCAAPWGQTDDRHQGGDYWGQGTQVTVSS | low polyreactivity |
| QVQLVESGGGLVQAGGSLRLSCASSGRTFLGYAMGWYRQAPGKERELVAAISYSGSSTYYADSVKGRFTISRDNAKNTVYLQMNSLKPEDTAVYYCAAQFYFLFDYWGQGTQVTVSS | low polyreactivity |
| QVQLVESGGGLVQAGGSLRLSCASSGRTFTPYAMGWSTQAPGKERELVAAISRRAGTTYYADSVKGRFTISRDKAKNYGFLQMNRLKPEETEVYYCAALTESSSYGYWGQGTQVNVSS | low polyreactivity |
| QVQLVESGGGLVQAGGSLRLSCASSGRTFTYYTMGWYRQAPGKERELVAAISSSGGSTYYADSVKGRFTISRDNAKNTVYLQMNSLKPEDTAVYYCAAVRGRLLPPYGYWGQGTQVTVSS | high polyreactivity |
| QVQLVESGGGLVQAGGSLRLSCASSGRTFVSNAKGWYRQAPGKERELVAVITGIGGNTYYADSVKGRFTISRDNAKNSDYLQMNSLKPEDTAVYYCAADISLVSYYYWGQGTQVTVSS | low polyreactivity |
| QVQLVESGGGLVQAGGSLRLSCASSGRTSLGYVMGWYRQAPGKERELVAAITKSGGSTYYADSVKGRFTISRDNAKNTVYLQMNSQKPEDTAVYYCAARNPWSARYEYWGQGTQVTVSS | high polyreactivity |
| QVQLVESGGGLVQAGGSLRLSCASSGSIFALNAMGWYRQAPGKERELVAAISSSGGNTYYADSVKGRFTISRDNAKNTVYLQMNSLKPEDTAVYYCNRVAYRNDFDYWGQGTQVTVSS | low polyreactivity |
| QVQLVESGGGLVQAGGSLRLSCASSGSIFPAYAMGWYRQAPGKERELVAAISSRGGSTYYADSVKGRFTISRDNAKNTVYLQMNSLKPEDTAVYYCAASRWLYYYLFEYWGQGTQVTVSS | high polyreactivity |
| QVQLVESGGGLVQAGGSLRLSCASSGSIFSKYAMGWYRQAPGKERELVAAITLNGGSTYYADSVKGRFTISRDNAKNTVYLQMNSLKPEDTAVYYCAKSDRPWWGYYYSWGQGSQVTVSS | low polyreactivity |
| QVQLVESGGGLVQAGGSLRLSCASSGSIFVANAMGWYRQAPGKERELVAAISVRGGRTYYADSVKGRFTISRDNAKNTVYLQMNSLKPEDTAVYYCARVLRSDVADYDYWGQGTQVSVSS | high polyreactivity |
| QVQLVESGGGLVQAGGSLRLSCASSGSILWLNAMGWYRQAPGKERDLVAAITSRGGSTYYADSVKGRYTITRDNANNTVYLQMNSLKPEDTAVYYCATRSSRGSGSRFDYWGQGTQVTVSS | high polyreactivity |
| QVQLVESGGGLVQAGGSLRLSCASSGSTFAIYAMGWYRQAPGKESELVAAITRSGGNAYYADSVKGRFTISRDNAKNTVYLQMNSLKPEDTAVYYCNAETYYWSAYAQYDYWGQGTQVTVSS | high polyreactivity |
